Reference: the nanobody polyreactivity screen of Harvey et al. (2022)

Assay: yeast display, Sf9 membrane polyspecificity reagent, FACS + sequencing; frameworks hold sequencing errors
How it was run: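 Polyreactivity labels are assigned by the sorting gate from which each nanobody was recovered. The gates were low and high (top ~1%), set on anti-HA fluorescence for expression and streptavidin fluorescence for reagent binding. Before sorting, galactose-induced (36–48 hours) yeast display cells were stained for 1 hour at 4 °C with 10% biotinylated, detergent-solubilized Sf9 membrane reagent.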

Sequence | polyreactivity (PSR sort gate)
QGQLVESGGGLVQAGGSLRLTCSASGSTFDSYGMGWYRQAPGKERELVASISSRGGSTYYADSVKGRFTISRDTAKNTVYLQMNSLKPEDTAVYYCAADWLSWFHGYGMYYWGQGTQVTVSS | low polyreactivity
QGQLVESGGGLVQEGGSLRLSCAASGSTFKRYVMGWYRQAPGKERELVAAITWSGTRTYYADSVKGRFTISRDNAKNTVYLQMNSLKPVDTAVYYCAARLYGGYDWGQGTQVTVSS | high polyreactivity
QGQLVESGGRLVQAGGSLRLSCAASGFIFRSYAMGWYRQAPAKERELVAVISRRGVNTPYADSVKGRFTISRDTSKNTVYLQMNSLKAEDTAVYYCAKGLTALGDYWGQGTQVNVSS | high polyreactivity
QGQLVESGGVLVQGGGSLRLSCAASGSIFVYNAMGWSRQAPGKERELVAANTSSGASTYYADSVKGRFPISRDNAKNTVYLQMISLNPEDTDVYYCNAGADSTVGNYVTSFSQYDFWGQGTQVTVSS | low polyreactivity
QGQLVQSGVGLVQAGGSLSLSCAASGIIFTWYDMGWYRQAPGKERELVAAISNSGGSTYYADSVKGRFTISRDNAKNTVYLQMNSLKPEDTAVYYCNAGSYVCEEDYWGQGTQVTVSS | high polyreactivity
QGQPVESGGGLVQAGGILRLSCAASGFISGGNAMGWDRQAPGKEREFVAAIDNTGSTYYADSVKGRFTISRDNEKNTVYLQMISLKPEDTAVYYFNAEVTEDYVDNDYGGQGTQVTVSS | low polyreactivity
QGQRVESGGGLVQAGGSLRLSCAPSGRTFKYYAMGWYRQAPGKERELFAAISYTGGSTYFADSVMGRFTISRDNAKNTVYLQMNSLKPEDTAVYYCARSYYTNGNALKRDYWGQGTQVTVSS | high polyreactivity
QHQLVESGGGLVQAGASLRLSCAASGRTFFKNAKGWYRQAPGKERELVAGISRTGSTNYADSVKGRFTISSDNAKNTVYLEMNSLKPEDTAVYYCAAGVLGLPLRHRYDYWGQGTQVTVSS | low polyreactivity
QIQLVESGGGLDQAGGSLRISCAASAYTYVDYIGCYIPAPGKERELVADIDNSGGGTYYADSVTGRFTISRDNAKNTVYFLMNSLKAEDTAVYYCAAEFPYDDYYSNRDYDYWGQGTQVTVSS | low polyreactivity
QIQLVESGGGLVQAGGSLRLSCAASGSIFSGYAMGWYRQAPGKERELVAAITSGGSTDYADSVKGRFTISRDNAKNTVYLQMNSLKPEDTAVYYCAAEGGYSSYGYDYWGQGTQVTVSS | low polyreactivity
QLHLVESGGGLVQAGGSLRLSCAASGITFAGYALGWYRQAPGKERELVASITWGGGRTYYADSVKGRFTSSRDNAKNTVYLQMNSLKPEATAVYYCATRRRPQYNKYDYWGQGTQLTVSS | high polyreactivity
QLQHVESGGGLVQAGGSLRLSCAASGYIFPVNAMGSYRQAPGKERELVASLTSGGSTYYADSVKGRFTISRDNAKNTVYLQMNSLKPEDTAVYYCAAQLGYAKPYVYGEWYYYWGQGNQVTVSS | low polyreactivity
QLQIVESGGGLVQAGGSLRISCAASVFTFCKYAMGWYRPAPGKERELVAAISVSGGRTYSADSVKGRFTISRDNAKNTVYLQMNSLKPEDTEVYYCNATQWRPYVGGEYWGQGTQVTVSS | high polyreactivity
QLQLEESGGGLVQAGASLPLSCAASGLTFVEYAMGCYRQAPGKEREFVAAIRSRGGSTYYADSVKGRFTISRDNAKTTVYLQMNSLKPEDTAVYYCNADGYFWGQGTQVTVSS | low polyreactivity
QLQLEESGGGLVQAGGSLRLSCAASGRIFNYYAMGWYRPAPGKEKELVAAISTVCGSTYYADSVKGRFTISRDKAKNTVYIQMHSLKPEDTSVYYCAAYQYYDFSYSYDYWGQGTQVTVSS | low polyreactivity
QLQLQESGGGLVQAGGSLRLTCAASGYIFPTAIMRWYRQAPGTERKLVAASNPGSNTYYADSVKGRFTFSLDNAKNTVYLQMNSLTPEDAAVYSCAVSIWLDGTLDFWGQGTQVTVSS | low polyreactivity

Sequence | polyreactivity (PSR sort gate)
QLQLVDSGGGLVQAGGSLRLSCAASGKTISSYAMGWYRQAPGKEREFVAAISRGARTYYADSVKGRFTISRDNAKNTVYLQMNSLKPEDTAVYYCATRWPHYGGYYYWGQGTQVTVSS | high polyreactivity
QLQLVDSGGGLVQAGGSLRLSCAASGSIFGAYAMGWYRHAPGKERELVAAINYGGATTYYADSVKGRFTISRDNAKNTVYLQMNSLIPEDTAVYYCAADYLYAYGDVADVYGWYAYYYWGQGTQVTVSS | low polyreactivity
QLQLVESGGGLDQAGGSLRLSCAASGGTFFKNAMGWYRQAPGNERELVAVIDTISTSTYYAESVKGRFTISRDNAKNTVYLQMNSLKPEDTAVYYCAAEYGPGLTEGLYYYWGQGTQVTVSS | high polyreactivity
QLQLVESGGGLFQAGGRLRLSFAATGSTFGYYARGWYRQAPGKERELVAAISGSGGSTYYADSVKGRFTISRDNAKNTVYLQMNSLKPEDTAVYYCAATFHRLPKWGSPYYYWGQGTQVTVSS | high polyreactivity
QLQLVESGGGLFQAGGSLRISCAASGRTFLRNAMGSYRQPPGKEREFVATISAGGGSTYYADSVKGRFTISRDNAKNTVYLQMNSLKPEDTAVYYCAARYRAGPGYGMDSCGQGTQVTVSS | high polyreactivity
QLQLVESGGGLVQAAGSLRLSSAASGSIFPDNAKGWYRQAPAKERELVATITSGGDTNYADSVKGRFTISRDNAKNTVYLQMNSLKPEDTAVYYCAADVYPDWLVKYDYWGQGTQVTVSS | low polyreactivity
QLQLVESGGGLVQAGASLRLSCAASGFIFKYNAMGWYRQAPCKERELVSAISRGTSTYYADSVKGRFTISRDNAKNTVYLQLNSLKPEDTAVYYCEATGRRPGQKYMGYDYWGQGTQVTVSS | high polyreactivity
QLQLVESGGGLVQAGCSLRLSCADSGRNYTMGRYRQAPGKERELVDASSKSGGSTSYADSVKGRFTISRDNAKNTVYLQLNSLKPEDTAVYYCATALRGSQAYSVRAMNYWGQATQVTVSS | high polyreactivity
QLQLVESGGGLVQAGGRLRLSCAASGITYFTYDMGWYRQAPGKERELVAAISGSGGSTYYADSVKGRFTISRDNAKNSFYLQMTSLKPEDTAVYYCAAEYTYGSPYDYWGQGTQVTVSS | low polyreactivity
QLQLVESGGGLVQAGGSIRLSCAASGSIFDWYAMGWYRQEPGKERELVARITSGGRTNYADSVKGRFTISRDNAKNTVYLQMNSLKPEDTAVYYCAAGRVSWSPYYYWGQGTQVTVSS | high polyreactivity
QLQLVESGGGLVQAGGSLRFSCAASGYISRRYAMVWSIQAPGKERELVAAITGGGGSTYYADSVKGRFTISRDNAKNTVYLQMNSLKPEFTAVYYCNAYWGRSGYAGGYWGQGTQVTVSS | high polyreactivity
QLQLVESGGGLVQAGGSLRISCAASRSTFENNAMGWYRQAPGKERELVASSTNYADSVKGRFTISRDNAKNTVYLQMNSLKPEDTAVYYCAREQGVNRNHDYWGQATQVTVSS | low polyreactivity
QLQLVESGGGLVQAGGSLRLSCAASGFIFYLYAMGWYRQAPGKDRELVAAISWSGGITYYADSVKGRFTISRDNAKNTVYLQMNSLKPEDTAVNYCNAVGASASDGDSWGQGTQVTVSS | high polyreactivity
QLQLVESGGGLVQAGGSLRLSCAASGRIFDYYAIGWYRQAPGKERQLVATINFSDGSTYYADSVKGRFTISRDNAKNTVYLQMNSLKPEDTAVYYCAAAGWEPYDSLDMNYWGQGTQVTVSS | low polyreactivity
QLQLVESGGGLVQAGGSLRLSCAASGRIFGNYAMGWYRQAPGKERELVASINIGGGSTYYADSVKGRFTISRDNAKNTVYLQMNSLKQEATAVYYCAAPNTTDYWPAQPGFDYWGQGTQVTVSS | low polyreactivity
QLQLVESGGGLVQAGGSLRLSCAASGRIFIYNAMGWYRQAPGKERELVAAINRSGVSTHYADSVKGRFTISRDNAKNTVYLQMNSLKPEDTAVYYCARTVYGARSFDYWGQGTQVTVSS | low polyreactivity
